Measured values: patent US20130252987A1, “METHOD OF REGULATING PLASMA LIPOPROTEINS” (MCMASTER UNIVERSITY, priority 2010, published 2013)

What was measured:
[1] = tested on: mouse primary hepatocytes; test: cellular apoB100 protein expression in primary mouse hepatocytes; type: cell-based; settings: 50 ng/mL, 24 hours
Description: (§1) Primary Cells: Fresh wild-type rat and mouse primary heptaocytes were supplied by CellzDirect (Invitrogen, NC) in a 6-well collagen coated plate. Upon arrival, the storage media was removed and incubation media (Williams E Medium, phenol red free, with incubation supplement pack, Gibco, NC) was added according to manufactures' instructions. The cells were incubated at 37° C. with 5% CO2 for 16 hours prior to human resistin (50 ng/mL) treatment for 24 hours. Cryopreserved plateable human hepatocytes, metabolism qualified from multiple normal human donors, were supplied by CellzDirect (Invitrogen, NC). Upon arrival, the cells (4-8 million in 1 mL), according to the manufacturer's instruction, were added to 48 mL warmed thawing medium (CHRM® Medium, Invitrogen, NC) and centrifuged at 100×g for 10 min at room temperature. The pellet was re-suspended in 4 mL plating medium (Williams E Medium, phenol red free, with maintenance supplement pack and 10% FBS, Gibco, NC). The cells were stained by Trypan Blue (Sigma, Canada) and counted by a haemocytometer, followed by seeding 1×10^6 cells/well in a 6-well collagen coated plate (CellzDirect, Invitrogen, NC). The cells were incubated at 37° C. with 5% CO2 for 4 hours to allow the cells to adhere. The plating media was replaced and cell incubated for 16 hours prior to human resistin treatment for 24 hours. […]

[2] = tested on: HepG2 cells; test: immunoblotting for LDL receptor and PCSK9 in HepG2 cells; settings: 24 hours
Description: Cells were propagated in 10% FBS-containing DMEM supplemented with 1% penicillin-streptomycin and 0.06% L-glutamine (584 mg/L) at 37° C., 5% CO2. During treatment experiments with human recombinant resistin (Calbiochem, UK) and/or lovastatin (Sigma, Mo.), the media was changed to 1% FBS-containing DMEM. All of the experiments to follow were performed at least three times and representative results are shown. Cells were stimulated with resistin at various doses (0, 10, 25, 50, and 100 ng/mL) for 24 hours or with a single dose at 50 ng/mL resistin. In other experiments, the microsomal triglyceride transfer protein (MTP) inhibitor, CP-346086, was administered at 1.3 nM, either alone or together with resistin (50 ng/mL) for 24 hours. Lovastatin was administered at 1 to 5 μM for 24 hours to stimulate the cells, either alone or in combination with resistin (50 ng/mL). Unless otherwise indicated, all experiments were performed in triplicate in three independent experiments.
Cell lysates collected with RIPA buffer (50 mM Tris, 150 mM sodium chloride, 1% NP-40, 12 mM sodium deoxycholate, 3.5 mM SDS, pH 7.4) and protease inhibitor cocktail (Roche Diagnostics, QC) were analyzed for human LDL receptor and PCSK9 as previously described (Rashid et al. Proc Nall Acad Sci U S A 2005; 102:5374-9). Equivalent amounts of total protein, determined by Bradford reaction was subjected to sodium dodecyl sulfate polyacrylamide gel electrophoresis (SDS-PAGE), transferred onto nitrocellulose membranes (BioRad, CA) and immunoblotted using antibodies against the LDL receptor (Fitzgerald International, CA) and PCSK9 (Cayman Chemicals, MI). Horseradish peroxidase-conjugated antibodies (BioRad, CA) were used as secondary antibodies. Immunoreactive bands were visualized with a chemiluminescence kit (PerkinElmer Life Sciences, MA). The blots were exposed to KODAK Biomax films, and the signal was quantified by densitometry using Quantity One version 4.6.7. software (Bio Rad, CA).
All of the experiments were performed at least three times and representative results are shown. Dose-response experiments were performed in HepG2 cells with 0, 10, 25, 50, 75 and 100 ng/mL of human resistin for 24 hours. Western blots were then performed on cell lysates to detect the cellular expression of LDL receptor protein.

[3] = tested on: HepG2 cells; test: FPLC lipoprotein profile of HepG2 cell media; type: cell-based, human; settings: 50 ng/mL, 24 hour
Description: Lipids from HepG2 cell extracts were quantified by gas chromatography (GC) as described in Sahoo et al. (J. Lipid Res. 45:1122-1131). Briefly, cell extracts were incubated with phospholipase C (Sigma, ON) to remove polar head groups, then extracted in the presence of internal standard by the method of Folch et al. (J Biol Chem 226:497-509). Extracted lipids were passed through a sodium sulfate column to remove aqueous contaminants, and derivatized with Sylon BFT (Supelco, ON) to cap reactive hydroxyl and carboxyl groups. Derivatized lipids were dissolved in hexane and injected onto a Zebron ZB-5 column (Phenomenex, Torrance, Calif.) in an Agilent 6890 GC instrument. Lipoprotein Profiles. HepG2 media from 6-10 cm plates was collected and concentrated using an Amicon Centriprep concentrator 50 K and lipoprotein classes separated by fast protein liquid chromatography (FPLC) on a Superose 6 10/30 gel filtration column (Amersham, UK) followed by inline post-column reaction with either Infinity Triglyceride or Infinity Cholesterol reagent (Thermo Scientific, West Palm Beach, Fla.) and measurement of absorbance @ 500 nm.
The characteristics of the apoB-containing lipoprotein particles produced as a result of treatment of human hepatocytes with human resistin was determined. […]

[4] = tested on: HepG2 cells; test: real-time quantitative PCR of mRNA expression; type: cell-based, human
Description: Total RNA was isolated from cell lysates (RNeasy Mini Kit, Qiagen, Germantown, Md.) and used as a template for cDNA synthesis (QuantiTech Reverse Transcription Kit, Qiagen, Germantown, Md.). Quantitative real-time PCR was performed using an Applied Biosystems 7300 Real Time PCR system (Carlsbad, Calif.) according to the manufacturer's instructions and with the SYBR green master kit (Qiagen, Germantown, Md.). Primers for the real-time PCR internal control gene cyclophilin A (sense, 5′-[…]-3′ (SEQ ID NO:3); antisense, 5′-[…]-3′ (SEQ ID NO:4)) were synthesized (IDT, Coralville, Iowa). Primers for succinate degydrogenase (SDH) (another real-time PCR internal control gene), apoB, microsomal triglyceride transfer protein (MTP), Srebp1, Srebp2, acetyl-coA carboxylase (ACC), HMG-coA reductase, HMG-coA synthase, squalene synthase (SS), the LDL receptor, PCSK9, fatty acid synthase (FAS), […] (SCD), DGAT1 and DGAT2 were purchased (proprietary sequences not available) (Qiagen, Germantown, Md.). The values reported for each mRNA were corrected to the cyclophilin A and SDH mRNA values.
Total RNA was isolated from cell lysates (RNeasy Mini Kit, Qiagen, MD) and used as a template for cDNA synthesis (QuantiTech Reverse Transcription Kit, Qiagen, MD). Quantitative real-time PCR was performed using an Applied Biosystems 7300 Real-Time PCR system (Carlsbad, Calif.) according to the manufacturer's instructions and with the SYBR green kit (Qiagen, MD). Primers for the real-time PCR internal control gene cyclophilin A, as identified in Example 1, were synthesized (IDT, IA). Primers for succinate dehydrogenase (SDH) (another real-time PCR internal control gene), SREBP2, HMG-CoA reductase, the LDL receptor and PCSK9 were purchased (proprietary sequences not available) (Qiagen, MD). The values reported for each mRNA were corrected to the cyclophilin A and SDH mRNA values.

[5] = tested on: human hepatocytes; test: cellular apoB100 protein expression in primary human hepatocytes; type: cell-based; settings: 50 ng/mL, 24 hours
Description: as §1

B1: human resistin: recombinant lyophilized purified human resistin (Calbiochem); cysteine-rich cytokine, single 12 kDa band (protein)
chain: KTLCSMEEAINERIQEVAGSLIFRAISSIGLECQSVTSRGDLATCPRGFAVTGCTCGSACGSWDVRAETTCHCQCAGMDWTGARCCRVQP
increase in cellular apoB protein expression versus untreated control cells [1]: 40-50%
reduction of LDL receptor protein expression ([2]; 25 ng/mL resistin): 30%
decrease in cellular LDL receptor protein expression ([2]; 50 ng/mL resistin): 40%
decrease in cellular LDL receptor protein expression ([2]; 75 ng/mL resistin): 40%
increase in cellular PCSK9 protein ([2]; resistin 50 ng/mL, with lovastatin 5 μM): 50%
increase in secreted VLDL triglycerides and cholesterol relative to control untreated cells [3]: 8-9 fold
lipid contents of the secreted LDL or HDL fractions [3]: virtually no change
apoB mRNA expression ([4]; 50 ng/mL, 24 hours): significant increase
expression of DGAT1 ([4]; 50 ng/mL, 24 hours): increased to smaller but significant extents
expression of SCD ([4]; 50 ng/mL, 24 hours): increased to smaller but significant extents
expression of the LDL RECEPTOR gene ([4]; 50 ng/mL, 24 hours): increased
expression of the PCSK9 gene ([4]; 50 ng/mL, 24 hours): increased
increase in the expression of ACC ([4]; 50 ng/mL, 24 hours): 3 fold
increase in the expression of HMG-CoA REDUCTASE ([4]; 50 ng/mL, 24 hours): 2 fold
increase in the expression of HMG-CoA SYNTHASE ([4]; 50 ng/mL, 24 hours): 2 fold
increase in the expression of SQUALENE SYNTHASE ([4]; 50 ng/mL, 24 hours): 2 fold
mRNA expression of SREBP1 ([4]; 50 ng/mL, 24 hours): significantly increased
mRNA expression of SREBP2 ([4]; 50 ng/mL, 24 hours): significantly increased
apoB mRNA expression ([4]; 100 ng/mL dose, after dose-response increase from 0 to 50 ng/mL): decreased
increase in cellular apoB protein expression versus untreated control cells [5]: 40-50%
